code Z = not defined here; fmk = not defined here
How the values were obtained:
caspases = assay: cell-based or functional assay
[1] = molecular target: 2XUb-DEVD-Bla fusion protein, P62593
2XUb-DEVD-Bla fusion protein, P62593, sequence (P62593 whole entry, looked up, the tested form may be a part): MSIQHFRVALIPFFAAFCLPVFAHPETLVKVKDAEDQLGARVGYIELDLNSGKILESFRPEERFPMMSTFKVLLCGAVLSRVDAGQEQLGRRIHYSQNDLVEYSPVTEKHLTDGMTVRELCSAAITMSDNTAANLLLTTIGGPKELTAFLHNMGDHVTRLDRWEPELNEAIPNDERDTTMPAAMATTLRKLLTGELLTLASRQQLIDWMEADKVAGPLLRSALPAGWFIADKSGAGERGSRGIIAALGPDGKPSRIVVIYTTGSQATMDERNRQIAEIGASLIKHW

Binder {code Z}-Val-Ala-Asp-fmk (reading uncertain; also: printed as Z-VAD-fmk) [Z-VAD-fmk] has a 460/530 emission ratio, + αFas/+ inh/+ chx, Jurkat cells expressing 2XUb-DEVD-Bla, 10 µM Z-VAD-fmk (460/530 emission ratio) (caspases) of 0.08 and an IC50 of inhibition of anti-Fas-induced caspase activity in Jurkat cells expressing 2XUb-DEVD-Bla (β-lactamase activity, CCF2 460/530 nm ratio) (caspases) of 5 µM.

B1: purified recombinant caspase-3 (protein)
chain: SGISLDNSYKMDYPEMGLCIIINNKNFHKSTGMTSRSGTDVDAANLRETFRNLKYEVRNKNDLTREEIVELMRDVSKEDHSKRSSFVCVLLSHGEEGIIFGTNGPVDLKKITNFFRGDRCRSLTGKPKLFIIQACRGTELDCGIETDSGVDDDMACHKIPVEADFLYAYSTAPGYYSWRNSKDGSWFIQSLCAMLKQYADKLEFMHILTRVNRKVATEFESFSFDATFHAKKQIPCIVSMLTKELYFYH
In the case of B1, the “in vitro cleavage of the 35S-labeled fusion by 25 nM purified caspase-3, SDS-PAGE and autoradiography” value [1] is reported as “over 90% cleavage within 5 minutes”.

Reference: patent US7262005
